Conditions in all cases: remark: other sources report otherwise
The target in assay [1] is SUDV GPddmuc (Sudan virus (SUDV)), Q66814.
For assay [2], the target named is EBOV GPddmuc (Ebola virus (EBOV)), Q05320.
Assay [3] deals with MARV GPddmuc (Marburg virus (MARV)), P35253.

B1: murine monoclonal antibody 8C4 (antibody, V domains shown)
VH: EVQLQESGPELKKPGETVKISCKASGYTFTTYGMSWVKQAPGKGLKWMGRINTYSGVPTYADEFKGRFAFSLENSASTAYLQINNLKNEDTATYFCARGDGGHWFANWGQGTLVTVSA
VL: DIQMTQSPSSLSASLGGKVTITCKASQDINKNIAWYQHKPGKGPRLLIWYKSALQPGIPSRFSGSGSGRDYSFSISNLEPEDIATYSCLQYDNLPPTFGGGTKLEIKR
With B1, the EC50 came to 0.06 µg/mL in assay [1] and 0.21 µg/mL in assay [2].

B2: murine monoclonal antibody 17C6 (antibody, V domains shown)
VH: EVQLQESGPGLVQPSQSLSITCTVSGFSLTSYGVHWVRQSPGKGLEWLGVIWSGGSTDYNAAFISRLSISKDNSKSQVFFKMNSLQADDTAIYYCARNWFDYDNYYSMDYWGQGTSVTVSS
VL: DIQMTQTTSSLSASLGDRVTISCRASQDISNYLNWYQQKPDGTVKLLIYYTSRLHSGVPSRFSGSGSGTDFSLTISNQEPEDIATYYCQQYSNLPWTFGGGTKLEIKR
For the molecule B2, the EC50 in assay [1] and in assay [2] was 0.03 µg/mL in each case.

B3: murine monoclonal antibody 21B2 (antibody, V domains shown)
VH: EVQLQESGAELVRPGASVTLSCKTSGYTFTDYEMHWVKQTPVHGLEWIGAIDPETGGTAYNQKFKGKATLTADKSSSTAYMELSRLTSEDSAVYYCTGNYATDYWGQGTSVTVSS
VL: DIVMSQSPSSLAVSAGEKVTMSCKSSQSLFNSRSRKNYLAWYQLKPGQSPKLLIYWASTRESGVPDRFTGSGSGTDFTLTISSVQAEDLAVYYCKQSNYLWTFGGGTKLEIKR
On to B3, for which the results for the concentration giving a half-maximal response (EC50) in assay [2] and in assay [3] were > 10 µg/mL and 0.0307 µg/mL, respectively.

B4: murine monoclonal antibody 2D8 (antibody, V domains shown)
VH: EVQLQESGGELVRPGTSVKISCKASGYTFTNFWLGWIKERPGHGLEWIGDIYPGGHYTNYNENFKGKATLTADTSSNTAYMQVSSLTSEDSAVYFCFTQYYDMDYWGQGTSVTVSS
VL: not shown
Consider B4, for which the 50% effective concentration (EC50) is > 10 µg/mL in assay [1], 26.2 µg/mL in assay [2] and 0.0573 µg/mL in assay [3].

B5: murine monoclonal antibody 16G8 (antibody, V domains shown)
VH: EVQLQESGPGLVKPGASVKISCKASGYSFTGYYMNWVKQSPEKSLEWIGEINPSTGGTTYNQKFKAKATLTVDKSSSTAYMQLKSLTSEDSAVYYCVRYSHYYGSGSWYFDVWGTGTTVTVSS
VL: DIQMTQSPASLSASVGETVTITCRASENIYSNLAWYQQKQGKSPQLLVNAATNLADGVPSRFSGSGSGTQFSLKINSLQPEDFGSYYCQHFYVTPYMFGSGTKLEIKR
For B5, the concentration giving a half-maximal response (EC50) was 0.22 µg/mL in assay [1] and 1.23 µg/mL in assay [2].

The EC50 is the concentration at which the effect is half-maximal. The low end stands for an effect from little substance, the high end for a need for much substance.

The values are drawn from US20180237502A1.
